From patent US20220073920
Like-named read-outs stand apart in the source and are kept apart here.

Experiments:
[1] = test system: Human adenovirus type 2 whole virion (HAdV-2) (Human adenovirus 2); conditions: ELASA; DPBS + 3 mM MgCl2 + 20 mM NaCl (printed NaCl2), pH 7.4, room temperature; n=6
[2] = test system: Human adenovirus type 2 whole virion (HAdV-2) (Human adenovirus 2); conditions: ELASA; DPBS + 3 mM MgCl2 + 20 mM NaCl (printed NaCl2), pH 7.4, room temperature; n=7

Row | Sequence | Kd [1] [µM] | Kd [2] [µM]
1 | GTGCCAGCTATGCCATTGGGGGACAATATCGCAGTGCATCTTCCTCTAGCGTCTATCTCTGCTGC [aptamer 10] | 0.0036 | 
2 | GTGCCAGCTATGCCATTGGGCGGGTCGTCCAATTCGAGAGGTCCCCTAGCGTCTATCTCTGCTGC [aptamer 20] |  | 0.0759
